Laboratory results: paper PMC4754655 (2016)

These binders were tested against T1, YU2 gp140-foldon trimer (HIV-1 isolate YU2 (clade B) | ) (assay: SPR).

Binder	Kd [nM]
GEBT403 mature Fab (Fab, V domains shown) VH: EVQLVQSGAEVKKPGSSVKVSCKASGYTFTDYYMHWVRQAPGQGLEWMGEINPKTGGTNYAQKFQGRVTMTRDTSTSTAYMELSSLRSEDTAIYSCARGGQRLIPLRRFYFYYWGQGVLVTVSS VL: QSVLTQPPSVSGAPGQKVTISCTGSSSNIGGYDVHWYQQLPGMAPKLLIYDNNERPSGISDRFSGSKSGTSASLAITGLQTEDEADYYCQSYDSSMNAWVFGGGTRLTVL	7

Each binder was assayed against YU2 gp120, soluble monomer (HIV-1 isolate YU2 (clade B), UniProt P35961 32-498) (assay: BLI).

Binder	Kd [nM]
GEBT412, mature IgG (antibody, V domains shown) VH: QVQLVESGGGLVQPGGSLRLACAASGFIFSNHGMHWVRQAPGKGLEWVAVIWYDGSEKYYADSVKDRFTISRDNSKNMLYLQMNNLKLVDTAVYYCARRGCTGSGCYLYYYGLDSWGQGVVVTVSS VL: DIQMTQSPSSLSASVGDTVTITCRASQGISSHLNWFQQKPGKAPKLLIYAATTLQSGVPSRFSGSGSGTDFTLTISSLQPEDFATYYCLQHNFYPYSFGQGTKVEIK	11
GEBT391, inferred germline (igL) reverted IgG (antibody, V domains shown) VH: EVQLVESGGGLVQPGGSLRLSCAASGFTFSSYGMHWVRQAPGKGLEWVAVIWYDGSKKYYADSVKDRFTISRDNSKNMLYLQMNNLKLEDTAVYYCARRGCTGSGCYLYYYALDSWGQGVVVTVSS VL: DIQMTQSPSSLSASVGDTVTITCRASQGISSYLNWFQQKPGKAPKLLIYAASSLESGVPSRFSGSGSGTEFTLTISSLQPEDFATYYCLQHNFYPYSFGQGTKVEIK	118
GEBT391, mature IgG (antibody, V domains shown) VH: QVQLVESGGGLVQPGGSLRLSCAASGFTFSSYGMHWVRQAPGKGLEWVAVIWFDGSEKYYVDSVKDRFTISRDNSKNMLYLQMNNLKLDDTAVYYCARRGCTGSGCYLYYYALDSWGQGVVVTVSS VL: DIQMTQSPSSLSASVGDTVTITCRASQGISSYLNWFQQKPGKAPKLLIYAATTLQSGVPSRFSGSGSGTDFTLTISSLQPEDFATYYCLQHNFYPYSFGQGTKVEIK	6
GEBT412, inferred germline (igL) reverted IgG (antibody, V domains shown) VH: QVQLVESGGGLVQPGGSLRLSCAASGFTFSSYGMHWVRQAPGKGLEWVAVIWYDGSKKYYADSVKDRFTISRDNSKNMLYLQMNNLKLEDTAVYYCARRGCTGSGCYLYYYGLDSWGQGVVVTVSS VL: DIQMTQSPSSLSASVGDTVTITCRASQGISSYLNWFQQKPGKAPKLLIYAASSLESGVPSRFSGSGSGTEFTLTISSLQPEDFATYYCLQHNFYPYSFGQGTKVEIK	104
GEBT404, mature IgG (antibody, V domains shown) VH: EVQLVESGGGLAKPGGSLRLSCAASGFTFSNYWMYWVRQAPGKGLEWISAINSAGSRTYYPDSVKGRFTISRENAKNTLYLQMDSLRAEDTAVYYCAKGRIAIFGLVITYFDYWGQGVLVTVSS VL: DIQMTQSPSSLSASVGDRVTITCRASQGITNDLAWYQQKPGETPKLLIYDASSLQSGIPSRFSGSGSGTDFTLTISSLQPEDFATYYCQHYYSTPPTFGGGTKVEIK	43
GEBT404, inferred germline (igL) reverted IgG (antibody, V domains shown) VH: EVQLVESGGGLAKPGGSLRLSCAASGFTFSNYWMHWVRQAPGKGLEWISAINSAGSSTYYADSVKGRFTISRENAKNTLYLQMDGLRAEDTAVYYCAKGRIAIFGLVITYFDYWGQGVLVTVSS VL: DIQMTQSPSSLSASVGDRVTITCQASQGITNDLAWYQQKPGETPKLLIYEASSLQSGIPSRFSGSGSGTDFTLTISSLQSEDFATYYCQHYYSTPPTFGGGTKVEIK	56
GEBT403, inferred germline (igL) reverted IgG (antibody, V domains shown) VH: QVQLVQSGAEVKKPGSSVKVSCKASGYTFTDYYMHWVRQAPGQGLEWMGEINPKTGGTNYAQKFQGRVTMTRDTSTSTAYMELSSLRSEDTAVYYCARGGQRLIPLRRFYFYYWGQGVLVTVSS VL: QSVLTQPPSVSGAPGQKVTISCTGSSSNIGGYDVHWYQQLPGMAPKLLIYDNNERPSGISDRFSGSKSATSASLAITGLQTEDEADYYCQSYDSSMNAWVFGGGTRLTVL	11
GEBT403, mature IgG (antibody, V domains shown) VH: EVQLVQSGAEVKKPGSSVKVSCKASGYTFTDYYMHWVRQAPGQGLEWMGEINPKTGGTNYAQKFQGRVTMTRDTSTSTAYMELSSLRSEDTAIYSCARGGQRLIPLRRFYFYYWGQGVLVTVSS VL: QSVLTQPPSVSGAPGQKVTISCTGSSSNIGGYDVHWYQQLPGMAPKLLIYDNNERPSGISDRFSGSKSGTSASLAITGLQTEDEADYYCQSYDSSMNAWVFGGGTRLTVL	13
GEBT414, mature IgG (antibody, V domains shown) VH: EVQLVQSGAEVKRPGESLRISCKTSGYSFTGSWISWVRQMPGKGLDWMGNIYPGDSDTRYNPSFQGHVTISADKSISTTYLQWSSLKASDTATYYCAKGGGITIFGLLHYPLDSWGQGVVVTVSS VL: DIQMTQSPSSLSASVGDTVTITCRASQGINNWLAWYQQKPGKAPKLLIYKASSLQSGVPSRFSGSGSGTDFTLTISSLQSEDFATYYCQQYNSGPLTFGGGTKVEIK	24
GEBT414, inferred germline (igL) reverted IgG (antibody, V domains shown) VH: EVQLVQSGAEVKRPGESLRISCKTSGYSFTGSWISWVRQMPGKGLEWMGSIYPGDSDTRYNPSFQGHVTISADKSISTTYLQWSSLKASDTATYYCAKGGGITIFGLLHYPLDSWGQGVVVTVSS VL: DIQMTQSPASLSASVGDRVTITCQASQGISSWLAWYQQKPGKAPKLLLYKAPGLQSGVPSMFSGSGSGTEFTLTISSLQPEDFATYYCQQYNSGPLTFGGGTKVEIK	63

Each binder was assayed against T1, YU2 gp140-foldon trimer (assay: BLI).

Binder	Kd [nM]
GEBT403 mature Fab (Fab, V domains shown) VH: EVQLVQSGAEVKKPGSSVKVSCKASGYTFTDYYMHWVRQAPGQGLEWMGEINPKTGGTNYAQKFQGRVTMTRDTSTSTAYMELSSLRSEDTAIYSCARGGQRLIPLRRFYFYYWGQGVLVTVSS VL: QSVLTQPPSVSGAPGQKVTISCTGSSSNIGGYDVHWYQQLPGMAPKLLIYDNNERPSGISDRFSGSKSGTSASLAITGLQTEDEADYYCQSYDSSMNAWVFGGGTRLTVL	5
GEBT403 igL-reverted Fab (Fab, V domains shown) VH: QVQLVQSGAEVKKPGSSVKVSCKASGYTFTDYYMHWVRQAPGQGLEWMGEINPKTGGTNYAQKFQGRVTMTRDTSTSTAYMELSSLRSEDTAVYYCARGGQRLIPLRRFYFYYWGQGVLVTVSS VL: QSVLTQPPSVSGAPGQKVTISCTGSSSNIGGYDVHWYQQLPGMAPKLLIYDNNERPSGISDRFSGSKSATSASLAITGLQTEDEADYYCQSYDSSMNAWVFGGGTRLTVL	2
